The assay has as its target T1, calmodulin (CaM), human calmodulin-1 (human, UniProt P0DP23 1-149).
T1 construct: also called CaM-NHS-Red
Put plainly: MST; Red-NHS-labelled CaM kept constant (466 nM in the results, 50 nM in the methods), (myr)MAPP titrated; 50 mM Tris-HCl, 100 mM NaCl, 0.05% Tween 20, pH 7.4, with 20 mM CaCl2; 25 °C; triplicates. The note with it: both partners purified.

B1: myristoylated M-PMV MA protein extended by 18 amino acids of the downstream phosphoprotein region of Gag (myrMAPP) (domain or fragment)
chain: GQELSQHERYVEQLKQALKTRGVKVKYADLLKFFDFVKDTCPWFPQEGTIDIKRWRRVGDCFQDYYNTFGPEKVPVTAFSYWNLIKELIDKKEVNPQVMAAVAQTEEILKSNSQTDL
modifications: N-terminal myristoyl; uniformly 15N-labelled in some NMR and mixed-isotope XL-MS samples
notes: source: E. coli BL21 (DE3), co-transformed with a plasmid coding yeast N-myristoyl transferase, purified (Ni-NTA agarose)
For orientation: Kd means the concentration at which binding is half-saturated. Low readings indicate tighter binding, high ones weaker binding. In turn, B1 came in with a Kd of 4.2 µM. In other words, the single-digit micromolar range.

B2: non-myristoylated M-PMV MA protein extended by 18 amino acids of the downstream phosphoprotein region of Gag (MAPP) (domain or fragment)
chain: B1 chain
On to B2, for which the Kd worked out at 33 µM.
